Assays:
[1] = molecular target: T1, EpnF (Streptomyces hygroscopicus, UniProt V5RMU9); test: Semiquantitative epoxide capture assay (EpnF-catalyzed epoxyketone formation); assay type: biochemical; conditions: 1 μM EpnF; for EpnF-catalyzed conversion to epoxyketone (epoxide capture): 240 μM β-ketoacid substrate (FIG. 2)
Procedure: Recombinant EpnF was diluted to 1 μM in 180 μL EpnF Buffer in an 1.5 mL Eppendorf tube. The β-ketoacid 11 was added at various concentrations to a total reaction volume of 200 μL. The mixture was incubated in a heated shaker at 37° C. and 225 rpm for 1 h. The reaction mixture (30 μL×3 technical replicates) was transferred to a white, opaque 96-well plate (PerkinElmer, OptiPlate-96). Each plate also contained 30 μL×3 technical replicates of EpnF Buffer as a negative control. To each well, 15 μL of 125 mM nicotinamide in EpnF Buffer was added and mixed by pipetting. The plate was sealed with an adhesive foil cover (VWR Adhesive Foil for Microplates) and heated in an oven at 80° C. for 1 h. The plate was cooled to rt and 25 μL of 15% (v/v) acetophenone in EtOH and 25 μL of 1 M potassium hydroxide in EtOH were added to each well, then mixed by pipetting. The plate was cooled on ice for 10 min, then 125 μL formic acid was added to each well. The plate was resealed and heated in an oven at 100° C. for 5 min. The plate was cooled on ice for 5-10 min, then analyzed (λex 370 nm, λem 430 nm) on a fluorescence plate reader (Molecular Devices Spectramax M3).
We adapted a reported epoxide capture assay [Nelis, H. J. C. F.; Sinsheimer, J. E. (1981) A sensitive fluorimetric procedure for the determination of aliphatic epoxides under physiological conditions. Anal. Biochem. 115, 151-157.] to 96-well plate format to detect formation of the epoxyketone products semiquantitatively. Each β-ketoacid substrate 11 was incubated with recombinant, purified EpnF (1 h), then reacted with nicotinamide and acetophenone (1 h) to form a fluorescent 1,6-naphthyridinone 24. The fluorescent signals were normalized to that resulting from the known substrate β-ketoacid 11n as a positive control [Zabala, D.; Cartwright, J. W.; Roberts, D. M.; Law, B. J. C.; Song, L.; Samborskyy, M.; Leadlay, P. F.; Micklefield, J.; Challis, G. L. (2016) A flavin-dependent decarboxylase-dehydrogenase-monooxygenase assembles the warhead of α,β-epoxyketone proteasome inhibitors. J. Am. Chem. Soc. 138, 4342-4345.].

[2] = molecular target: T1, EpnF; test: Enzyme kinetic analysis by SPE-MS/MS assay; assay type: biochemical; conditions: for efficiency of EpnF-catalyzed conversion compared to parent substrate 11a (in words): quantitative SPE-MS/MS assay
Procedure: (§1) SPE-MS/MS analyses were carried out on an Agilent RapidFire 365 High-Throughput Mass Spectrometry System with 6495 triple quadrupole mass spectrometer. Determination of initial velocity: EpnF stock at 100 μM was diluted 10-fold in EpnF Buffer to a 10 μM working solution, which was further diluted to 8 concentrations (10-0.005 μM) in EpnF Buffer (intermediate volume 1350 μL, concentrations calculated for 1500 μL theoretical final volume corresponding to addition of substrate solutions below). The 8 EpnF enzyme dilutions were aliquoted (90 μL) into the corresponding 8 tubes of PCR tube strips (12 strips, one per time point; Thermo Scientific, AB-2000). The β-ketoacid 11 (20 mM in EtOH) was diluted to 10 μM in EpnF Buffer, then 10 μL of this solution was added to each of the tubes (1 μM final concentration, 100 μL final volume) to initiate the reaction. Samples were incubated in a heated shaker at 37° C. and 225 rpm for up to 120 min, and one tube strip was removed at each time point. Each tube was quenched with 5% formic acid in EpnF Buffer (100 μL), pipetted vigorously, and flash frozen on dry ice. Samples were thawed then centrifuged to precipitate protein and transferred to a conical-bottom 96-well plate (Thermo Scientific/Nunc, 249944) for SPE-MS/MS analysis. Measurement of Km and Vmax: Using the data from the initial velocity experiments above, an appropriate EpnF enzyme concentration was selected for each β-ketoacid 11 at which the rate of conversion to the epoxyketone 12 remained linear at 10 min (0.50 μM for 11n and 0.05 μM for all other substrates). Each substrate (20 mM in EtOH) was diluted to 1 mM in EpnF Buffer, then diluted to 8 concentrations (100-0.5 μM) in EpnF Buffer (intermediate volume 1350 μL, concentrations calculated for 1500 μL theoretical volume corresponding to addition of enzyme solutions below). The 8 substrate dilutions were aliquoted (90 μL) into the corresponding 8 tubes of PCR tube strips (12 strips, one per time point; Thermo Scientific, AB-2000). The EpnF enzyme stock solution was diluted in EpnF Buffer to the appropriate concentration for each substrate, then 10 μL of this solution was added to each of the tubes (100 μL final volume) to initiate the reaction. For the 0-min time point, 5% formic acid in EpnF Buffer was added to the β-ketoacid substrate before addition of the enzyme. Samples were incubated in a heated shaker at 37° C. and 225 rpm for up to 10 min, and one tube strip was removed at each time point. Each tube was quenched by addition of 5% formic acid in EpnF Buffer (100 μL), pipetted vigorously, and flash frozen on dry ice. Samples were thawed then centrifuged to precipitate proteins and the supernatants were transferred to a conical-bottom 96-well plate (Thermo Scientific/Nunc, 249944) for SPE-MS/MS analysis. Km and Vmax values for each substrate were calculated by Michaelis-Menten analysis. To obtain a quantitative assessment of EpnF substrate specificity, we developed a kinetic assay (10 min) using SPE-MS/MS (solid-phase extraction/triple quadrupole mass spectrometry; Agilent RapidFire 365 with 6495 MS) to enable direct detection of both substrates and products.

[3] = during isolation and characterization; cited from earlier work
[4] = substrate: C=C(C)C[C@H](NC(=O)[C@H](CO)NC(=O)CCCCC(C)C)C(=O)C(C)(C)C(=O)O; test: Enzyme kinetic analysis by SPE-MS/MS assay; assay type: biochemical; conditions: other: 0.05 μM EpnF; 37.0 °C
Procedure: as §1

[5] = substrate: CC(C)CCCCC(=O)N[C@@H](C)C(=O)N[C@@H](CC(C)C)C(=O)C(C)(C)C(=O)O; test: Enzyme kinetic analysis by SPE-MS/MS assay; assay type: biochemical; conditions: other: 0.05 μM EpnF; 37.0 °C
Procedure: as §1

[6] = substrate: CCCC(=O)N[C@@H](CO)C(=O)N[C@@H](CC(C)C)C(=O)C(C)(C)C(=O)O; test: Enzyme kinetic analysis by SPE-MS/MS assay; assay type: biochemical; conditions: other: 0.50 μM EpnF; 37.0 °C
Procedure: as §1

[7] = substrate: CC(C)C[C@H](NC(=O)[C@H](CO)NC(=O)c1ccccc1)C(=O)C(C)(C)C(=O)O; test: Enzyme kinetic analysis by SPE-MS/MS assay; assay type: biochemical; conditions: other: 0.05 μM EpnF; 37.0 °C
Procedure: as §1

[8] = substrate: CC(C)CCCCC(=O)N[C@H](C(=O)N[C@@H](CC(C)C)C(=O)C(C)(C)C(=O)O)C(C)O; test: Enzyme kinetic analysis by SPE-MS/MS assay; assay type: biochemical; conditions: other: 0.05 μM EpnF; 37.0 °C
Procedure: as §1

[9] = substrate: CC(C)CCCCC(=O)N[C@@H](CO)C(=O)N[C@@H](CC(C)C)C(=O)C(C)(C)C(=O)O; test: Enzyme kinetic analysis by SPE-MS/MS assay; assay type: biochemical; conditions: other: 0.05 μM EpnF; 37.0 °C
Procedure: as §1

CC(C)CCCCC(=O)N[C@H](C(=O)N[C@@H](CC(C)C)C(=O)C(C)(C)C(=O)O)C(C)O (stereo partly drawn) [Compound 11l, (4S)-4-[(2S)-3-Hydroxy-2-(6-methylheptanamido)butanamido]-2,2,6-trimethyl-3-oxoheptanoic acid]
EpnF-catalyzed conversion to epoxyketone (epoxide capture) [1]: tolerated
efficiency of EpnF-catalyzed conversion compared to parent substrate 11a (in words) [2]: slightly lower efficiency

CCCCCCCCCC(=O)N[C@@H](CO)C(=O)N[C@@H](CC(C)C)C(=O)C(C)(C)C(=O)O [Compound 11q, (4S)-4-[(2S)-2-Decanamido-3-hydroxypropanamido]-2,2,6-trimethyl-3-oxoheptanoic acid]
EpnF-catalyzed conversion to epoxyketone (epoxide capture) [1]: permitted
solubility (kinetic parameters could not be determined) ([2]; EpnF Buffer): solubility limitations

CCCC(=O)N[C@@H](CO)C(=O)N[C@@H](CC(C)C)C(=O)C(C)(C)C(=O)O [Compound 11n, (4S)-4-((S)-2-Butyramido-3-hydroxypropanamido)-2,2,6-trimethyl-3-oxoheptanoic acid]
EpnF-catalyzed conversion to epoxyketone (epoxide capture) [1]: permitted
spontaneous decarboxylation [3]: can undergo spontaneous decarboxylation

C=C(C)C[C@H](NC(=O)[C@H](CO)NC(=O)CCCCC(C)C)C(=O)C(C)(C)C(=O)O [Compound 11b, (S)-4-((S)-3-Hydroxy-2-(6-methylheptanamido)propanamido)-2,2,6-trimethyl-3-oxohept-6-enoic acid]
EpnF-catalyzed formation of epoxyketone (epoxide capture) ([1]; 250 μM β-ketoacid substrate, 1 h, positive control 11n (FIG. 1)): lower levels
converted more efficiently than 11n ([2]; relative to 11n): ≈ 20 fold

CC(C)CCCCC(=O)N[C@H](C(=O)N[C@@H](CC(C)C)C(=O)C(C)(C)C(=O)O)C(C)C [Compound 11k, (4S)-2,2,6-Trimethyl-4-[(2S)-3-methyl-2-(6-methylheptanamido)butanamido]-3-oxoheptanoic acid]
EpnF-catalyzed conversion to epoxyketone (epoxide capture) [1]: tolerated to a lesser degree
efficiency of EpnF-catalyzed conversion compared to parent substrate 11a (in words) [2]: low conversion

B1: EpnF (Streptomyces hygroscopicus) (protein)
chain: MSDSKSVNLFHRHGVPSFLEGIYQGRFEWDMISNFVAQDSADEKAGDAAVERLTDILRNRVNPTAVDATRELPEGLLEELRRTGFLNLQDSPDIGGLGLSSYNTFRVVQAAASWSVPVALVLGIQTAVGSGTYLRALPPGELHSYVEQRLLDGIISGSADTEPAGASNSARRTRAVPTDDGEAFLLTGEKIHIGNGPIADIVTVSAMLDEDGQDRPRLFFVETSDPGFSIRSRHEFMGVKGFPNAALVLDGVRVPRERMIVEVDPDTEVRITAELTMAVVRGRLHLITAPSLAISKLCLEWSRNFVNRRTIDGRPLGAREEIQHMVSSTMADVFAIQALAEWSLLPADQPDLGLNVAFEQNVTKAISAEICWRAADRTMDLLAGEGFETAPSKARRGAPALPLERFYRDARNLRISGGVSFLLQFWAARMSQFTYYGPDHAGQSAALSQDGGQQPCTDGLDPLNADHLRFAAAETRRLGAACQKFAADHPAPGLYEHQHRLIAFSRIADEILTMSVVLAKAARLHHEGRTEAQDLAAIYCAHARDRLAALWRQAEPVTAGPDHAAVSDAWLSGDDTYASLITGVITDVPPTADTHPGKR
Km [4]: 17.3 µM
kcat [4]: 0.114 s⁻¹
kcat/Km [4]: 6580 M⁻¹ s⁻¹
Km [5]: 4.70 µM
kcat [5]: 0.025 s⁻¹
kcat/Km [5]: 5320 M⁻¹ s⁻¹
Km [6]: 23.1 µM
kcat [6]: 0.0067 s⁻¹
kcat/Km [6]: 290 M⁻¹ s⁻¹
Km [7]: 6.13 µM
kcat [7]: 0.0125 s⁻¹
kcat/Km [7]: 1880 M⁻¹ s⁻¹
Km [8]: 13.3 µM
kcat [8]: 0.016 s⁻¹
kcat/Km [8]: 1200 M⁻¹ s⁻¹
Km [9]: 11.6 µM
kcat [9]: 0.071 s⁻¹
kcat/Km [9]: 6120 M⁻¹ s⁻¹
